For series [1], the target named is T1, NTwt (wildtype N-terminal (NT) fragment of Euprosthenops australis major ampullate spidroin 1) (Euprosthenops australis).
T1 chain: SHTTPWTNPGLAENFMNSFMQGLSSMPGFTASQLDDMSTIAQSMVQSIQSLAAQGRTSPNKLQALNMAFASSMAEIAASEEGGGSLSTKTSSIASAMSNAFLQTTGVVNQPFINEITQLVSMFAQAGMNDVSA
Description: tryptophan fluorescence ratio 339/351 nm vs pH, 5 µM protein in 20 mM HEPES/20 mM MES; homodimerization. The settings on record: remark: other sources report otherwise.

Series [2] deals with the molecule itself. Description: tryptophan fluorescence ratio 339/351 nm vs pH (self-association / dimerization). The protocol: Fluorescence emission spectra for NT_{D40K/K65D} (SEQ ID NO: 2) and NTwt (SEQ ID NO: 11), respectively, were measured on a spectrofluorometer (Tecan Safire 2) using Costar® black polystyrene assay plates with 96 flat bottom wells. The proteins were diluted to a concentration of 5 μM in 20 mM HEPES/20 mM MES adjusted to pH 5.6-8.0 in steps of 0.4 pH units. After exciting the samples at 280 nm (5 nm bandwidth), emission spectra were recorded in 1 nm steps between 300-400 nm (10 nm bandwidth). The tryptophan fluorescence ratio was calculated from the intensities at 339 nm and 351 nm and plotted as a function of pH. […]
The pH-dependent monomer-dimer equilibrium of NT can be monitored through the fluorescence shift of a single tryptophan (Trp) residue that becomes more exposed in the dimer. FIG. 2 is a graph illustrating the monomer-dimer equilibrium measured with Trp fluorescence. Trp fluorescence spectra between 300 and 400 nm were measured in 20 mM HEPES/20 mM MES buffer and the ratio at 339/351 nm (wavelengths corresponding to monomer and dimer conformations, respectively) was calculated and plotted as a function of pH for NTwt (dotted line) and NT_{D40K/K65D} (filled line). The ratio of fluorescence at 339 and 351 nm as a function of pH gives a sigmoidal plot for NTwt with a pKa of dimerization at pH 6.5. […]

B1: NTwt (wildtype N-terminal (NT) fragment of Euprosthenops australis major ampullate spidroin 1) (protein)
chain: SHTTPWTNPGLAENFMNSFMQGLSSMPGFTASQLDDMSTIAQSMVQSIQSLAAQGRTSPNKLQALNMAFASSMAEIAASEEGGGSLSTKTSSIASAMSNAFLQTTGVVNQPFINEITQLVSMFAQAGMNDVSA
Turning to B1, the pKa of dimerization in series [1] was 6.5 pH.

B2: NTD40K/K65D (charge-reversed double mutant of the NT fragment) (other)
chain: SHTTPWTNPGLAENFMNSFMQGLSSMPGFTASQLDKMSTIAQSMVQSIQSLAAQGRTSPNDLQALNMAFASSMAEIAASEEGGGSLSTKTSSIASAMSNAFLQTTGVVNQPFINEITQLVSMFAQAGMNDVSA
notes: Expressed in E. coli BL21 (DE3); also called charge-reversed NT mutant; NT mutant
B2: the binding result in series [2] is recorded as “no binding (tested: 5 µM protein, pH 5.6-8.0)”.

For the origin of these results see patent US20200207819A1 (SPIBER TECHNOLOGIES, published 2020).
